The data set concerns the molecule itself. Kind of data set: crystal structure; SeMet-DnaJ_(Δ108–114/4M), SeMet-SAD phasing, 2.9 Å; two dimers in the asymmetric unit; crystals from 14–16% PEG 6000, 0.1 M succinate/BTP pH 7.0 with adenine nucleotides.

B1: SeMet-DnaJ_(Δ108–114/4M), Thermus thermophilus DnaJ lacking residues 108–114 with four residues substituted by methionine (natural protein, UniProt Q56237 1-280, looked up)
chain: MAAKKDYYAILGVPRNATQEEIKRAYKRLARQYHPDVNKSPEAEEKFKEINEAYAVMSDPEKRRIYDTYGTTEAPPPPPPGGYDFSGFDVEDFSEFFQELFGPGLFGKGRDLRAELPLTLEEAFHGGERVVEVAGRRVSVRMPPGVREGSVIRVPGMGGQGNPPGDLLLVVRMLPHPVFRLEGQDLYATLDVPAPIAVVGGKVRAMTLEGPVEVAVPPRTQAGRKMRLKGKGFPGPAGRGDLYLEVRITIPERLTPEEEALWKKLAEAYYARA
modifications: selenomethionine in place of methionine
notes: DnaJ (type II DnaJ, Hsp40 homologue) of Thermus thermophilus with J, GF and C-terminal domains; chains A-D of the model hold residues 2-272; Cloned NcoI/NotI into pET24d; also called DnaJ_(108114/4M); source: E. coli BL21(DE3) in minimal medium with L-selenomethionine, purified (heat denaturation, Ni-NTA, Superdex 200)
As to B1, the binding result is given as “binds”.

The record behind these values is paper PMC3727329, “Combining crystallography and EPR: crystal and solution structures of the multidomain cochaperone DnaJ” (Acta Crystallographica Section D: Biological Crystallography, 2013).
